These results are taken from the supplement of paper PMC9112550, “Optimization of the antimicrobial peptide Bac7 by deep mutational scanning” (BMC Biology, 2022).

The data set concerns Escherichia coli TOP10. Nature of the data set: shrunken log2 fold change of peptide-encoding DNA abundance (4.5 h post-induction vs induction); higher = less antimicrobial activity (less host growth inhibition). As to conditions: time post-induction: 4.5 h; library: site-saturation at positions 5, 18, 19, 20.
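Further: peptides expressed intracellularly from a pBAD plasmid library in pooled LB shake-flask culture, induced with 0.3% L-arabinose, DNA abundance read by NGS, three biological replicates, DESeq2 with apeglm shrinkage.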

In the case of RRIRSRPPRLPRPRPRPKIMPRP, the “shrunken log2 fold change” value was -0.246.

In the case of RRIRQRPPRLPRPRPRPSKKPRP, the “shrunken log2 fold change” value amounted to 0.0216.

Take RRIRCRPPRLPRPRPRPNLPPRP: the “shrunken log2 fold change” value was 0.649.

Turning to RRIRYRPPRLPRPRPRPATMPRP, the “shrunken log2 fold change” value is -0.69.

For RRIRPRPPRLPRPRPRPQIYPRP, the “shrunken log2 fold change” value is -0.858.

Take RRIRHRPPRLPRPRPRPCQTPRP: the “shrunken log2 fold change” value is -0.0148.

Turning to RRIRIRPPRLPRPRPRPLWIPRP, the “shrunken log2 fold change” value was -0.445.

Regarding RRIRKRPPRLPRPRPRPQSKPRP, the “shrunken log2 fold change” value was 0.116.

Take RRIRARPPRLPRPRPRPNDPPRP: the “shrunken log2 fold change” value worked out at 0.104.

Regarding RRIRWRPPRLPRPRPRPPMAPRP, the “shrunken log2 fold change” value was found to be 0.598.

For RRIRHRPPRLPRPRPRPCRTPRP, the “shrunken log2 fold change” value stood at 0.00884.

For the sequence RRIRCRPPRLPRPRPRPAVCPRP, the “shrunken log2 fold change” value was 0.297.

Take RRIRFRPPRLPRPRPRPGPPPRP: the “shrunken log2 fold change” value came to 0.909.

As to RRIRCRPPRLPRPRPRPMDWPRP, the “shrunken log2 fold change” value is -0.0172.

Consider RRIRIRPPRLPRPRPRPCHLPRP, for which the “shrunken log2 fold change” value is -0.281.

With RRIRLRPPRLPRPRPRPRFGPRP, the “shrunken log2 fold change” value came out at 0.145.

Consider RRIRFRPPRLPRPRPRPWLPPRP, for which the “shrunken log2 fold change” value is -0.0149.

Consider RRIRNRPPRLPRPRPRPASPPRP, for which the “shrunken log2 fold change” value was 0.154.

Consider RRIRLRPPRLPRPRPRPGSHPRP, for which the “shrunken log2 fold change” value is 0.0329.

As for RRIRWRPPRLPRPRPRPWSGPRP, the “shrunken log2 fold change” value is 0.076.

On to RRIRNRPPRLPRPRPRPGKIPRP, for which the “shrunken log2 fold change” value is -0.284.

As for RRIRFRPPRLPRPRPRPGTLPRP, the “shrunken log2 fold change” value was -0.422.

Regarding RRIRGRPPRLPRPRPRPIEYPRP, the “shrunken log2 fold change” value amounted to 0.0165.

With RRIRMRPPRLPRPRPRPSDDPRP, the “shrunken log2 fold change” value is 1.89.

Turning to RRIRPRPPRLPRPRPRPENYPRP, the “shrunken log2 fold change” value was -0.283.

In the case of RRIRRRPPRLPRPRPRPTSMPRP, the “shrunken log2 fold change” value came out at 0.263.

With RRIRARPPRLPRPRPRPFSDPRP, the “shrunken log2 fold change” value is -0.169.

RRIRERPPRLPRPRPRPHAAPRP: the “shrunken log2 fold change” value is -0.0217.

Turning to RRIRQRPPRLPRPRPRPLELPRP, the “shrunken log2 fold change” value worked out at 0.0289.

In the case of RRIRVRPPRLPRPRPRPWMPPRP, the “shrunken log2 fold change” value is -0.199.

For RRIRRRPPRLPRPRPRPPIQPRP, the “shrunken log2 fold change” value stood at 0.16.

For the sequence RRIRLRPPRLPRPRPRPDKEPRP, the “shrunken log2 fold change” value turned out to be 0.0143.

Take RRIRKRPPRLPRPRPRPKNYPRP: the “shrunken log2 fold change” value was 0.0189.

Regarding RRIRPRPPRLPRPRPRPTFMPRP, the “shrunken log2 fold change” value stood at 0.0861.

Take RRIRTRPPRLPRPRPRPQASPRP: the “shrunken log2 fold change” value was determined as 2.4.

For RRIRSRPPRLPRPRPRPCWQPRP, the “shrunken log2 fold change” value is -0.00872.

Consider RRIRLRPPRLPRPRPRPMGIPRP, for which the “shrunken log2 fold change” value came to 0.0924.

For RRIRTRPPRLPRPRPRPYWFPRP, the “shrunken log2 fold change” value was -0.535.

For RRIRFRPPRLPRPRPRPQLFPRP, the “shrunken log2 fold change” value was 0.104.

RRIRQRPPRLPRPRPRPIYQPRP: the “shrunken log2 fold change” value was -0.647.

On to RRIRERPPRLPRPRPRPHWHPRP, for which the “shrunken log2 fold change” value is -0.298.

Regarding RRIRLRPPRLPRPRPRPVKLPRP, the “shrunken log2 fold change” value was -0.473.

For RRIRYRPPRLPRPRPRPFLKPRP, the “shrunken log2 fold change” value is -0.122.

Take RRIRNRPPRLPRPRPRPWTEPRP: the “shrunken log2 fold change” value was -0.249.

Turning to RRIRCRPPRLPRPRPRPRYTPRP, the “shrunken log2 fold change” value was -0.37.

Regarding RRIRWRPPRLPRPRPRPQRQPRP, the “shrunken log2 fold change” value was 0.123.

Turning to RRIRCRPPRLPRPRPRPYQMPRP, the “shrunken log2 fold change” value was -1.3.

Take RRIRCRPPRLPRPRPRPSDEPRP: the “shrunken log2 fold change” value was -0.126.

Turning to RRIRARPPRLPRPRPRPRKCPRP, the “shrunken log2 fold change” value is 0.154.

For the sequence RRIRWRPPRLPRPRPRPPAKPRP, the “shrunken log2 fold change” value is 0.56.

As for RRIRSRPPRLPRPRPRPNAWPRP, the “shrunken log2 fold change” value is -0.0228.

Take RRIRSRPPRLPRPRPRPTGMPRP: the “shrunken log2 fold change” value worked out at 0.0395.

With RRIRLRPPRLPRPRPRPQDEPRP, the “shrunken log2 fold change” value turned out to be 0.119.

On to RRIRSRPPRLPRPRPRPAIKPRP, for which the “shrunken log2 fold change” value is -0.352.

For RRIRGRPPRLPRPRPRPIWYPRP, the “shrunken log2 fold change” value is -0.114.

With RRIRKRPPRLPRPRPRPKSKPRP, the “shrunken log2 fold change” value was 0.45.

RRIRFRPPRLPRPRPRPMLRPRP: the “shrunken log2 fold change” value was determined as 0.0268.

RRIRHRPPRLPRPRPRPFTDPRP: the “shrunken log2 fold change” value was -0.1.

On to RRIRWRPPRLPRPRPRPWWKPRP, for which the “shrunken log2 fold change” value is -0.00743.

For RRIRIRPPRLPRPRPRPGMCPRP, the “shrunken log2 fold change” value is -0.238.

For RRIRCRPPRLPRPRPRPQHHPRP, the “shrunken log2 fold change” value is -0.46.

As to RRIRVRPPRLPRPRPRPHLRPRP, the “shrunken log2 fold change” value stood at 0.248.

In the case of RRIRQRPPRLPRPRPRPYYIPRP, the “shrunken log2 fold change” value is -0.657.

For the sequence RRIRFRPPRLPRPRPRPCINPRP, the “shrunken log2 fold change” value is -0.0523.

On to RRIRRRPPRLPRPRPRPRKSPRP, for which the “shrunken log2 fold change” value was found to be 0.339.

For RRIRSRPPRLPRPRPRPTRNPRP, the “shrunken log2 fold change” value stood at 0.29.

RRIRDRPPRLPRPRPRPEQKPRP: the “shrunken log2 fold change” value is 0.0533.

Turning to RRIRHRPPRLPRPRPRPMPHPRP, the “shrunken log2 fold change” value was -0.131.

As to RRIRDRPPRLPRPRPRPLIHPRP, the “shrunken log2 fold change” value was -0.0249.

With RRIRTRPPRLPRPRPRPKVWPRP, the “shrunken log2 fold change” value is 0.325.

In the case of RRIRWRPPRLPRPRPRPRCVPRP, the “shrunken log2 fold change” value came out at 0.117.

On to RRIRLRPPRLPRPRPRPSINPRP, for which the “shrunken log2 fold change” value is -0.32.

With RRIRARPPRLPRPRPRPKGQPRP, the “shrunken log2 fold change” value is 0.296.

On to RRIRHRPPRLPRPRPRPKKVPRP, for which the “shrunken log2 fold change” value was 0.00707.

On to RRIRYRPPRLPRPRPRPLAAPRP, for which the “shrunken log2 fold change” value turned out to be 0.153.

With RRIRSRPPRLPRPRPRPTSEPRP, the “shrunken log2 fold change” value amounted to 0.292.

For RRIRGRPPRLPRPRPRPMIPPRP, the “shrunken log2 fold change” value was -0.219.

Consider RRIRTRPPRLPRPRPRPQGHPRP, for which the “shrunken log2 fold change” value was -0.122.

With RRIRLRPPRLPRPRPRPSDVPRP, the “shrunken log2 fold change” value was -0.533.

Regarding RRIRPRPPRLPRPRPRPGGYPRP, the “shrunken log2 fold change” value turned out to be 0.25.

For RRIRGRPPRLPRPRPRPRSGPRP, the “shrunken log2 fold change” value came out at 0.83.

For RRIRTRPPRLPRPRPRPLKLPRP, the “shrunken log2 fold change” value was -0.251.

Consider RRIRIRPPRLPRPRPRPKWDPRP, for which the “shrunken log2 fold change” value is -0.13.

Take RRIRGRPPRLPRPRPRPHKAPRP: the “shrunken log2 fold change” value was -0.0636.

As to RRIRWRPPRLPRPRPRPFFLPRP, the “shrunken log2 fold change” value is -0.0114.

For the sequence RRIRRRPPRLPRPRPRPRDDPRP, the “shrunken log2 fold change” value was determined as 0.14.

As to RRIRGRPPRLPRPRPRPNVYPRP, the “shrunken log2 fold change” value worked out at 0.205.

For RRIRCRPPRLPRPRPRPGKNPRP, the “shrunken log2 fold change” value was -0.133.

RRIRCRPPRLPRPRPRPWIKPRP: the “shrunken log2 fold change” value is -1.1.

Take RRIRMRPPRLPRPRPRPGFPPRP: the “shrunken log2 fold change” value worked out at 0.446.

RRIRLRPPRLPRPRPRPQAWPRP: the “shrunken log2 fold change” value came out at 0.126.

For the sequence RRIRSRPPRLPRPRPRPWHRPRP, the “shrunken log2 fold change” value was -0.024.

For the sequence RRIRRRPPRLPRPRPRPQEMPRP, the “shrunken log2 fold change” value is 0.51.

Take RRIRYRPPRLPRPRPRPVYGPRP: the “shrunken log2 fold change” value was -0.0722.

For the sequence RRIRKRPPRLPRPRPRPKPNPRP, the “shrunken log2 fold change” value was 0.516.

Take RRIRKRPPRLPRPRPRPGHFPRP: the “shrunken log2 fold change” value turned out to be 0.0417.

On to RRIRFRPPRLPRPRPRPIRPPRP, for which the “shrunken log2 fold change” value is -0.009.

For the sequence RRIRHRPPRLPRPRPRPQRDPRP, the “shrunken log2 fold change” value was determined as 0.000147.

On to RRIRSRPPRLPRPRPRPKGEPRP, for which the “shrunken log2 fold change” value turned out to be 0.379.

On to RRIRWRPPRLPRPRPRPTCFPRP, for which the “shrunken log2 fold change” value is 0.0863.

Regarding RRIRWRPPRLPRPRPRPNQNPRP, the “shrunken log2 fold change” value was -0.221.

With RRIRARPPRLPRPRPRPNGWPRP, the “shrunken log2 fold change” value was determined as 0.401.

Take RRIRRRPPRLPRPRPRPLDHPRP: the “shrunken log2 fold change” value was -0.357.

In the case of RRIRCRPPRLPRPRPRPPGPPRP, the “shrunken log2 fold change” value was found to be 0.337.

As for RRIRQRPPRLPRPRPRPNNLPRP, the “shrunken log2 fold change” value is -0.401.

In the case of RRIRVRPPRLPRPRPRPVEKPRP, the “shrunken log2 fold change” value amounted to 0.265.

For RRIRSRPPRLPRPRPRPLGFPRP, the “shrunken log2 fold change” value came out at 0.0335.

Consider RRIRERPPRLPRPRPRPDWDPRP, for which the “shrunken log2 fold change” value was -0.248.

Regarding RRIRFRPPRLPRPRPRPYERPRP, the “shrunken log2 fold change” value was -0.119.

Turning to RRIRIRPPRLPRPRPRPEDPPRP, the “shrunken log2 fold change” value is 0.0426.

Consider RRIRLRPPRLPRPRPRPPCWPRP, for which the “shrunken log2 fold change” value was determined as 0.16.

RRIRMRPPRLPRPRPRPNTPPRP: the “shrunken log2 fold change” value came to 0.188.

With RRIRRRPPRLPRPRPRPAMYPRP, the “shrunken log2 fold change” value was -0.145.

Consider RRIRHRPPRLPRPRPRPRLMPRP, for which the “shrunken log2 fold change” value is 0.121.

Turning to RRIRFRPPRLPRPRPRPDQKPRP, the “shrunken log2 fold change” value is -0.0128.

In the case of RRIRHRPPRLPRPRPRPGETPRP, the “shrunken log2 fold change” value was -0.00149.

RRIRPRPPRLPRPRPRPFVHPRP: the “shrunken log2 fold change” value is -0.246.

As to RRIRCRPPRLPRPRPRPWLNPRP, the “shrunken log2 fold change” value is -0.752.

Turning to RRIRIRPPRLPRPRPRPYESPRP, the “shrunken log2 fold change” value is -0.0135.

RRIRARPPRLPRPRPRPIYWPRP: the “shrunken log2 fold change” value was found to be 0.0177.

Turning to RRIRWRPPRLPRPRPRPSQVPRP, the “shrunken log2 fold change” value is -0.0348.

Take RRIRQRPPRLPRPRPRPRFDPRP: the “shrunken log2 fold change” value was -0.0137.

For the sequence RRIRGRPPRLPRPRPRPLVPPRP, the “shrunken log2 fold change” value stood at 0.417.

With RRIRCRPPRLPRPRPRPGNMPRP, the “shrunken log2 fold change” value is -0.368.

Consider RRIRPRPPRLPRPRPRPNWLPRP, for which the “shrunken log2 fold change” value was 0.124.
